{"source": "patent US8865222B2", "about": "“Beta-casein assemblies for enrichment of food and beverages and methods of preparation thereof” (Technion Research and Development Foundation Ltd., priority 2008, dated 2014)", "experiment": "Analytical ultracentrifugation, sedimentation equilibrium", "type": "physicochemical", "procedure": "• Cryo-TEM: Specimens were prepared in the controlled environment vitrification system (CEVS) (Bellare et al. Electron Microsc. Technique, 1988, 10; 87-111) at 24° C. and 100% relative humidity to avoid loss of volatiles. First, the solutions were incubated in the CEVS at the desired temperature for 1 h. Then, a 7 μL drop of each solution was placed on a TEM copper grid covered with a perforated carbon film (Pelco International) and blotted with filter paper to form a thin liquid film of the sample (100-200 nm thick). The thinned sample was plunged into liquid ethane at its freezing temperature (−183° C.) to form a vitrified specimen and then transferred to liquid nitrogen ([…]) for storage. The vitrified specimens were examined in a Philips CM120 transmission electron microscope operating at an accelerating voltage of 120 kV. We used an Oxford CT3500 (Oxford Instruments) cryoholder that maintained the specimens below −175° C. during sample transfer and observation. Images were recorded digitally on a cooled Gatan MultiScan 791 CCD camera using DigitalMicrograph 3.1 software (Gatan) in the low-dose imaging mode to minimize beam exposure and electron-beam radiation damage. • ITC: ITC measurements were performed with a VP-ITC calorimeter (MicroCal) at a temperature of 24° C. […] The micellar solution was injected into the reaction cell in 28 steps of 10 μL aliquots each, and the heat flow was measured. […] The average apparent molecular weight of the micelles at the various protein concentrations was calculated following methods well known in the art (The partial specific volume vj of the solute was taken to be 0.742 cm3/g3, and a solution density F of 1.0044 g/cm3 was measured). At beta-casein concentrations of 2 mg/mL and above under low pH conditions, the plot of the natural logarithm of the measured absorbance versus the square of the radius from the axis of rotation was not linear. […] The molecular weight calculated using this slope was divided by the monomer molecular weight calculated from the beta-casein amino acid sequence (24000). […]", "data": [{"molecule": "beta-casein: lyophilized bovine beta-casein (~24 kDa milk protein) self-assembled into nano-sized micelles at low or neutral pH (protein, UniProt P02666 16-224, looked up) Beta-casein: RELEELNVPGEIVESLSSSEESITRINKKIEKFQSEEQQQTEDELQDKIHPFAQTQSLVYPFPGPIPNSLPQNIPPLTQTPVVVPPFLQPEVMGVSKVKEAMAPKHKEMPFPKYPVEPFTESQSLTLTDVENLHLPLPLLQSWMHQPHQPLPPTVMFPPQSVLSLSQSKVLPVPQKAVPYPQRDMPIQAFLLYQEPVLGPVRGPFPIIV", "values": [{"measurement": "aggregation number", "setting": "pH 2.6, around the CMC", "value": 3}, {"measurement": "aggregation state", "setting": "pH 2.6, concentrations lower than the CMC", "value": "monomeric"}, {"measurement": "Nagg", "setting": "pH 7.0 and ionic strength 0.1", "value": 20}]}]}
